Assay results: paper PMC4092090, “Investigation of a MMP-2 Activity-Dependent Anchoring Probe for Nuclear Imaging of Cancer” (PLoS ONE, 2014)
Like-named read-outs stand apart in the source and are kept apart here.

How the values were obtained:
[1] = test system: HT1080 tumor bearing mice; parameters: species or system mouse (Balb/c nu-nu); settings: mouse, in vivo, iv; for Radioactivity biodistribution, Blood / Radioactivity biodistribution, Heart / Radioactivity biodistribution, Intestine / Radioactivity biodistribution, Kidneys / Radioactivity biodistribution, Liver / Radioactivity biodistribution, Lung / Radioactivity biodistribution, Muscle / Radioactivity biodistribution, Pancreas / Radioactivity biodistribution, Spleen / Radioactivity biodistribution, Stomach / Radioactivity biodistribution, Tumor / T/B (tumor to blood ratio): 37 kBq
Description: Female Balb/c nu-nu mice (5 weeks old, Japan SLC, Inc., Shizuoka, Japan) were housed under a 12-h light/12-h dark cycle and given free access to food and water. HT1080 cells (5×10^6 cells/100 μl PBS (-)/mouse) were subcutaneously inoculated into the right hind leg of Balb/c nu-nu mice. Animals were used for experiments two weeks after inoculation when the mean tumor size was 5.7±2.2 mm along the major axis. […]3000 and […] (37 kBq, 100 μl in PBS including 3% bovine serum albumin and 0.1% Tween 80) were injected intravenously into the tail vein of tumor bearing mice. The mice were sacrificed at various post-injection time points (n = 3 for each time point), and the organs of interest including the tumor tissues were collected for determination of the weights. The radioactivity of each sample was measured with a NaI well-type scintillation counter. From fitting to the two phase decay curves for blood radioactivity data analyzed by GraphPad Prism 6 (GraphPad Software, San Diego, CA), whole body pharmacokinetic parameters such as blood half-lives, distribution volume, mean residence time and total clearance were calculated for each of the probes and the values compared. Simple pharmacokinetic analysis using a single tissue compartment model was applied to the biodistribution data to calculate rate constants (K1 and k2) for radioactivity transfer from blood to tumor and clearance from tumor to blood by PMOD version 3.2. In addition, MDAP3000 (7.4 MBq in 200 μl) was injected intravenously into the tail vein of tumor bearing mice for metabolite analysis in tumors excised 3, 6, and 24 hr post injection (n = 2 each). Tumor homogenates were prepared on ice and insoluble material was removed by centrifugation after methanol treatment. The resulting supernatant was analyzed by RP-HPLC.

[2] = molecular target: T1, Human-recombinant MMP-2 protein (Homo sapiens, UniProt P08253); test: Cleavage assay; assay type: biochemical; settings: activated MMP-2 1–5 nM, 370 kBq probe, 37°C, 2 hr, pH 7.5 assay buffer, RP-HPLC, Fig. 3b
T1 construct: purchased R & D Systems, Inc. 902-MP-010
T1 sequence (P08253 110-660): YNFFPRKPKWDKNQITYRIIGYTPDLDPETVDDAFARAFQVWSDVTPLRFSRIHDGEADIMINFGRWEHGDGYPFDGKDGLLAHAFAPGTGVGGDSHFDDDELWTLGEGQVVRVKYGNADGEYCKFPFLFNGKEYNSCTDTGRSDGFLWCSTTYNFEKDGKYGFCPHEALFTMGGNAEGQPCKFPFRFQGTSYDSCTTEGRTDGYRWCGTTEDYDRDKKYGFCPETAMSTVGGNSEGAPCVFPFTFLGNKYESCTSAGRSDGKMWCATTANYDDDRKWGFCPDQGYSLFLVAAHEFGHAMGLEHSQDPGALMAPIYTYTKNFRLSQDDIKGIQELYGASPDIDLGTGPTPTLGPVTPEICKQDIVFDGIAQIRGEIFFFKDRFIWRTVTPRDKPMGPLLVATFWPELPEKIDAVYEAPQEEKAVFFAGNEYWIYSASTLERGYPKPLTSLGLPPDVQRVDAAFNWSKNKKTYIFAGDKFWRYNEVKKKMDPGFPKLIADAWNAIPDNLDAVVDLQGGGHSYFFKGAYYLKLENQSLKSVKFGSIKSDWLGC
Description: Human-recombinant MMP-2 protein (902-MP-010, R & D Systems, Inc., Minneapolis, MN USA) was activated with p-aminophenylmercuric acetate (1 mM) in assay buffer (50 mM Tris-HCl, 150 mM NaCl, 10 mM CaCl2, 5 µM ZnCl2, 0.02% Brij 35, pH 7.5). MDAP1000, MDAP3000, and MDAP5000 (370 kBq) were incubated at 37°C for 2 hr with activated MMP-2 (1–5 nM) and a MMP inhibitor (0 or 100 µM, GM6001, Merck KGaA, Darmstadt, Germany). The reaction was quenched by addition of methanol, and the percentage of cleaved peptide was estimated by RP-HPLC.

Substance: Palmitoyl-Dap(p-SCN-Bn-DTPA-^111In)-10-Adc-Gly-Pro-Leu-Gly-Val-Arg-Gly-Lys(ivDde)-PEG1000 [MDAP1000]
- Blood clearance (in words) [1]: rapid blood clearance
- Tumor accumulation (in words) [1]: low tumor accumulation
- Radioactivity biodistribution, Blood ([1]; 0.25 h): 46.93±5.71 % injected dose per gram
- Radioactivity biodistribution, Heart ([1]; 0.25 h): 9.40±2.03 % injected dose per gram
- Radioactivity biodistribution, Intestine ([1]; 0.25 h): 4.18±0.58 % injected dose per gram
- Radioactivity biodistribution, Kidneys ([1]; 0.25 h): 14.24±1.90 % injected dose per gram
- Radioactivity biodistribution, Liver ([1]; 0.25 h): 34.27±5.87 % injected dose per gram
- Radioactivity biodistribution, Lung ([1]; 0.25 h): 21.23±2.65 % injected dose per gram
- Radioactivity biodistribution, Muscle ([1]; 0.25 h): 2.15±0.57 % injected dose per gram
- Radioactivity biodistribution, Pancreas ([1]; 0.25 h): 4.28±0.41 % injected dose per gram
- Radioactivity biodistribution, Spleen ([1]; 0.25 h): 8.06±0.23 % injected dose per gram
- Radioactivity biodistribution, Stomach ([1]; 0.25 h): 1.03±0.15 % injected dose per organ
- Radioactivity biodistribution, Tumor ([1]; 0.25 h): 1.70±0.85 % injected dose per gram
- T/B (tumor to blood ratio) ([1]; 0.25 h): 0.04±0.01
- Radioactivity biodistribution, Blood ([1]; 1 h): 24.81±3.60 % injected dose per gram
- Radioactivity biodistribution, Heart ([1]; 1 h): 8.43±1.19 % injected dose per gram
- Radioactivity biodistribution, Intestine ([1]; 1 h): 8.97±0.28 % injected dose per gram
- Radioactivity biodistribution, Kidneys ([1]; 1 h): 11.66±1.17 % injected dose per gram
- Radioactivity biodistribution, Liver ([1]; 1 h): 42.27±8.44 % injected dose per gram
- Radioactivity biodistribution, Lung ([1]; 1 h): 12.56±1.70 % injected dose per gram
- Radioactivity biodistribution, Muscle ([1]; 1 h): 1.94±0.33 % injected dose per gram
- Radioactivity biodistribution, Pancreas ([1]; 1 h): 5.52±1.05 % injected dose per gram
- Radioactivity biodistribution, Spleen ([1]; 1 h): 7.72±1.86 % injected dose per gram
- Radioactivity biodistribution, Stomach ([1]; 1 h): 1.13±0.21 % injected dose per organ
- Radioactivity biodistribution, Tumor ([1]; 1 h): 1.90±0.38 % injected dose per gram
- T/B (tumor to blood ratio) ([1]; 1 h): 0.08±0.02
- Radioactivity biodistribution, Blood ([1]; 3 h): 10.58±1.28 % injected dose per gram
- Radioactivity biodistribution, Heart ([1]; 3 h): 7.47±0.45 % injected dose per gram
- Radioactivity biodistribution, Intestine ([1]; 3 h): 20.39±4.51 % injected dose per gram
- Radioactivity biodistribution, Kidneys ([1]; 3 h): 10.56±1.49 % injected dose per gram
- Radioactivity biodistribution, Liver ([1]; 3 h): 50.70±7.52 % injected dose per gram
- Radioactivity biodistribution, Lung ([1]; 3 h): 6.17±0.88 % injected dose per gram
- Radioactivity biodistribution, Muscle ([1]; 3 h): 2.00±0.38 % injected dose per gram
- Radioactivity biodistribution, Pancreas ([1]; 3 h): 4.50±1.45 % injected dose per gram
- Radioactivity biodistribution, Spleen ([1]; 3 h): 10.01±3.77 % injected dose per gram
- Radioactivity biodistribution, Stomach ([1]; 3 h): 1.14±0.33 % injected dose per organ
- Radioactivity biodistribution, Tumor ([1]; 3 h): 2.65±0.33 % injected dose per gram
- T/B (tumor to blood ratio) ([1]; 3 h): 0.25±0.05
- Radioactivity biodistribution, Blood ([1]; 6 h): 5.85±0.74 % injected dose per gram
- Radioactivity biodistribution, Heart ([1]; 6 h): 5.71±0.61 % injected dose per gram
- Radioactivity biodistribution, Intestine ([1]; 6 h): 13.23±3.92 % injected dose per gram
- Radioactivity biodistribution, Kidneys ([1]; 6 h): 9.53±1.08 % injected dose per gram
- Radioactivity biodistribution, Liver ([1]; 6 h): 30.08±5.98 % injected dose per gram
- Radioactivity biodistribution, Lung ([1]; 6 h): 4.38±0.32 % injected dose per gram
- Radioactivity biodistribution, Muscle ([1]; 6 h): 1.68±0.46 % injected dose per gram
- Radioactivity biodistribution, Pancreas ([1]; 6 h): 5.53±1.77 % injected dose per gram
- Radioactivity biodistribution, Spleen ([1]; 6 h): 10.00±2.61 % injected dose per gram
- Radioactivity biodistribution, Stomach ([1]; 6 h): 0.73±0.06 % injected dose per organ
- Radioactivity biodistribution, Tumor ([1]; 6 h): 3.18±0.69 % injected dose per gram
- T/B (tumor to blood ratio) ([1]; 6 h): 0.55±0.15
- Radioactivity biodistribution, Blood ([1]; 24 h): 5.26±0.94 % injected dose per gram
- Radioactivity biodistribution, Heart ([1]; 24 h): 4.11±0.44 % injected dose per gram
- Radioactivity biodistribution, Intestine ([1]; 24 h): 4.90±0.90 % injected dose per gram
- Radioactivity biodistribution, Kidneys ([1]; 24 h): 7.01±0.45 % injected dose per gram
- Radioactivity biodistribution, Liver ([1]; 24 h): 8.89±1.11 % injected dose per gram
- Radioactivity biodistribution, Lung ([1]; 24 h): 2.63±0.28 % injected dose per gram
- Radioactivity biodistribution, Muscle ([1]; 24 h): 1.55±0.13 % injected dose per gram
- Radioactivity biodistribution, Pancreas ([1]; 24 h): 6.21±3.76 % injected dose per gram
- Radioactivity biodistribution, Spleen ([1]; 24 h): 4.82±1.10 % injected dose per gram
- Radioactivity biodistribution, Stomach ([1]; 24 h): 0.49±0.09 % injected dose per organ
- Radioactivity biodistribution, Tumor ([1]; 24 h): 3.33±0.44 % injected dose per gram
- T/B (tumor to blood ratio) ([1]; 24 h): 0.65±0.15
- Cleavage by MMP-2 [2]: concentration-dependent manner
